Assay results taken from patent publication US10543284B2, “Anti-c-Met antibody and anti-c-Met antibody-cytotoxic drug conjugate and pharmaceutical use thereof” (Suzhou Suncadia Biopharmaceuticals Co., Ltd., priority 2015, dated 2020).

Assays:
[1] = test system: c-Met tyrosine residue 1349; assay: Agonist test: c-Met phosphorylation in A549 cells; assay type: cell-based, human; conditions: Antibody 20 μg/ml; activation by HGF (200 ng/ml) set as 100%
Experimental: The binding of HGF to c-Met activates both tyrosine phosphorylation of the c-Met molecule and the c-Met signaling pathway. Therefore, the activation of c-Met by HGF was used as a positive control of the agonist experiment, and human lung cancer cell line […] was used to evaluate the induced phophorylation of c-Met tyrosine residue 1349.
A549 cells were suspended in solution containing Ham's F12K, 2 mM glutamine (Invitrogen, #21127-022), and 10% (v/v) FBS (GIBCO, #10099141). 0.2 mL of cell suspension was taken and added to a 96-well plate (Corning, #3599), and the cell concentration was 60000 cells/well. The plate was incubated for 24 hours under 5% CO2 at 37° C. After 24 hours, the media in the 96-well plate was discarded, and 100 μl low serum medium (Ham's F12K+2 mM glutamine+0.5% FBS) was added. The cells were starved for 6 hours under 5% CO2 at 37° C. Antibodies were diluted using the above low serum medium to a final concentration of 20 μg/ml. The HGF concentration in the positive control was 200 ng/ml. The plate was incubated for 15 minutes at 37° C. […] After cell lysis, c-Met tyrosine phosphorylation was detected by ELISA. […] Data was read by a […] microplate reader (Supplier: Moleculer Devices; Model: MNR0643; Equip ID: TMRP001). […]

[2] = test system: H441 cells; assay: Agonist test: H441 cell migration; assay type: cell-based, human; conditions: Antibody 20 μg/ml; migration affected by HGF (200 ng/ml) set as 100%
Excerpt: If anti c-Met antibodies have agonist activity, the migration ability of cells could be affected. The H441 cell line expressing c-Met is used in the invention to evaluate the ability of c-Met antibodies to affect cell migration. H441 cells (ATCC, Cat No.: HTB-174) were resuspended to 500,000 cells/ml in RPMI 1640 medium (GIBCO, Cat No.: 11835-030) which contains 10% (v/v) FBS (GIBCO, Cat No.: 10099-141) and penicillin-streptomycin (GIBCO, Cat No.: 15070-063). The resuspended H441 cells were added to a 12-well culture plate (Costar, Cat No. 3513) at 1 ml/well, and were cultured for 3 days at 37° C. in 5% CO2. Cells were washed twice with PBS, and RPMI 1640 medium containing 0.5% FBS was added, and the plate was cultured for 16 hours at 37° C. in 5% CO2. The bottom of each well was scratched with 5 ml tips, and the plate was washed once with medium containing low concentration of FBS, and 1 ml of RPMI 1640 medium containing a low concentration of serum was added. The plate was marked, photos were taken for randomly selected scratch areas under an inverted microscope at 4× magnification. This time was set as the starting point. […] The percentage of cell migration was measured as the migration distance relative to the starting point divided by the migration distance of the test group relative to the starting point, and then multiplied by 100.

[3] = test system: human gastric cancer MKN45 cell model; assay: MKN45 subcutaneous xenograft in BALB/c nude mice (Example 10); assay type: in vivo; conditions: 5 mg/kg antibody, terminated at day 25
Experimental: The human gastric cancer MKN45 cell model, obtained by subcutaneous xenograft into BALB/c nude mice, was used to evaluate the antitumor activity of the antibodies.
MKN45 cells were cultured in a monolayer in RPMI-1640 medium (10%/FBS) at 37° C. in 5% CO2. The cells were counted and collected during the logarithmic phase. The cells were resuspended in PBS to an appropriate concentration, and 0.1 ml 3×10^6 cells were subcutaneously injected into the right wing of mice (BALB/c nude mouse, female, 10-week old, 22-28 g, from Shanghai SLAC experimental animal ltd. Licence No. 2007000548777; Environment: SPF grade). When the tumors' average volume reached 114 mm^3, the tumors' weights and volumes were measured, and mice were then separated into groups for treatment. The control group was treated with PBS, and the antibody therapy group was treated with 5 mg/kg antibody of the invention, and the frequency was once a week and twice per time. The tumors' volumes and weights were measured twice a week, and the experiment was terminated at day 25. The formula for calculating tumor size was: tumor volume (mm^3)=0.5×(tumor length×tumor diameter^2).

B1: Ab-9: humanized anti c-Met antibody: heavy chain sequence of SEQ ID NO: 23 and light chain sequence of SEQ ID NO: 26 (antibody)
heavy: QVTLKESGPVLVKPTETLTLTCTVSGFSLPNYGVHWVRQPPGKALEWLAVIWSGGSTNYAAAFVSRLRISKDTSKSQVVFTMNNMDPVDTATYYCARNHDNPYNYAMDYWGQGTTVTVSSASTKGPSVFPLAPCSRSTSESTAALGCLVKDYFPEPVTVSWNSGALTSGVHTFPAVLQSSGLYSLSSVVTVPSSNFGTQTYTCNVDHKPSNTKVDKTVERKCCVECPPCPAPPVAGPSVFLFPPKPKDTLMISRTPEVTCVVVDVSHEDPEVQFNWYVDGVEVHNAKTKPREEQFNSTFRVVSVLTVVHQDWLNGKEYKCKVSNKGLPAPIEKTISKTKGQPREPQVYTLPPSREEMTKNQVSLTCLVKGFYPSDIAVEWESNGQPENNYKTTPPMLDSDGSFFLYSKLTVDKSRWQQGNVFSCSVMHEALHNHYTQKSLSLSPGK
light: DIVLTQSPASLAVSPGQRATITCRANKSVSTSTYNYLHWYQQKPGQPPKLLIYLASNLASGVPARFSGSGSGTDFTLTINPVEANDTANYYCQHSRDLPPTFGQGTKLEIKRTVAAPSVFIFPPSDEQLKSGTASVVCLLNNFYPREAKVQWKVDNALQSGNSQESVTEQDSKDSTYSLSSTLTLSKADYEKHKVYACEVTHQGLSSPVTKSFNRGEC
modifications: Ab-9 heavy chain; Ab-9 light chain
- Activation of c-Met phosphorylation (%) [1]: 29.9%
- H441 migration (%) [2]: 53%
- inhibition rate [3]: 56%
